3 molecules from US20170283457A1 (YEDA RESEARCH AND DEVELOPMENT, published 2017) can be followed below.

To fix the notation:
B1: Importin7 (receptor, UniProt O95373 1-1038, looked up)
chain: MDPNTIIEALRGTMDPALREAAERQLNEAHKSLNFVSTLLQITMSEQLDLPVRQAGVIYLKNMITQYWPDRETAPGDISPYTIPEEDRHCIRENIVEAIIHSPELIRVQLTTCIHHIIKHDYPSRWTAIVDKIGFYLQSDNSACWLGILLCLYQLVKNYEYKKPEERSPLVAAMQHFLPVLKDRFIQLLSDQSDQSVLIQKQIFKIFYALVQYTLPLELINQQNLTEWIEILKTVVNRDVPNETLQVEEDDRPELPWWKCKKWALHILARLFERYGSPGNVSKEYNEFAEVFLKAFAVGVQQVLLKVLYQYKEKQYMAPRVLQQTLNYINQGVSHALTWKNLKPHIQGIIQDVIFPLMCYTDADEELWQEDPYEYIRMKFDVFEDFISPTTAAQTLLFTACSKRKEVLQKTMGFCYQILTEPNADPRKKDGALHMIGSLAEILLKKKIYKDQMEYMLQNHVFPLFSSELGYMRARACWVLHYFCEVKFKSDQNLQTALELTRRCLIDDREMPVKVEAAIALQVLISNQEKAKEYITPFIRPVMQALLHIIRETENDDLTNVIQKMICEYSEEVTPIAVEMTQHLAMTFNQVIQTGPDEEGSDDKAVTAMGILNTIDTLLSVVEDHKEITQQLEGICLQVIGTVLQQHVLEFYEEIFSLAHSLTCQQVSPQMWQLLPLVFEVFQQDGFDYFTDMMPLLHNYVTVDTDTLLSDTKYLEMIYSMCKKVLTGVAGEDAECHAAKLLEVIILQCKGRGIDQCIPLFVEAALERLTREVKTSELRTMCLQVAIAALYYNPHLLLNTLENLRFPNNVEPVTNHFITQWLNDVDCFLGLHDRKMCVLGLCALIDMEQIPQVLNQVSGQILPAFILLFNGLKRAYACHAEHENDSDDDDEAEDDDETEELGSDEDDIDEDGQEYLEILAKQAGEDGDDEDWEEDDAEETALEGYSTIIDDEDNPVDEYQIFKAIFQTIQNRNPVWYQALTHGLNEEQRKQLQDIATLADQRRAAHESKMIEKHGGYKFSAPVVPSSFNFGGPAPGMN
notes: Endogenous protein; also called Imp7; RANBP7

Assay [1] addresses T1, Importin9 (UniProt Q96P70 2-1041).
T1 construct: Endogenous protein; also called Imp9; IMB5
Briefly: PLA, resting HeLa cells. As to the method:
FIGS. 5A-5D illustrate that Imp3 interacts with Imp7/9-MAPK dimer in a phospho-dependent manner (A) Detecting heterodimerization of Imp3/7/9 using PLA. HeLa cells were grown on slides to 70% confluence, serum starved, and stimulated with Anisomycin (Anis, 0.5 μg/ml 15 min). Thereafter, the cells were fixed and subjected to a PLA, using the Abs indicated on top. The nuclei were detected using DAPI, and slides were visualized using a fluorescent microscope. (B) Quantification of the intensity of the signal was performed using ImageJ analysis tool. Data shown represents mean±S.E. The significance of stimulated vs NT was p<0.0005. (C) Detecting Imp3/7/9 interaction by CoIP. Serum-starved HeLa cells (0.1% FBS, 16 hrs) were treated with Anisomycin (Anis 0.5 μg/ml) or TPA (250 nM) for 15 min. Cell extracts were then subjected to a Co-IP with the Abs indicated on right. […] The beads were then washed with a washing buffer containing 150 mM NaCl, and interacting Imps were detected using Western blot analysis with the indicated Abs.
In order to examine this hypothesis, and establish a complex formation between endogenous Imp3/7/9, the present inventors monitored these possible interactions by PLA. No interaction between any of the examined Importins was detected in resting HeLa cells (FIGS. 5A, 5B). […]

For assay [2], the target named is T1, Importin9. Briefly: in vitro interaction: GST-MAPK with Imp IPed from stimulated HeLa cells, Western blot. On the procedure:
(§1) FIGS. 3A-3B illustrate that JNK1/2 and p38α/β directly interact with either Imp7 or Imp9 but not with Imp3. (A) In vitro interaction of JNK1/2 and p38α/β with Imp3/7/9. Purified Imp3/7/9 were prepared by IP as follows: HeLa cells were grown to 70% confluence, serum starved, and then were either stimulated with Anisomycin (Anis 0.5 μg/ml, 15 min), TPA (250 nM, 15 min) or left untreated (NT). Imp3/7/9 were then IPed from the cell's extracts and extensively washed, twice with RIPA buffer and once with 0.5M LiCl. The indicated GST-MAPKs were prepared from bacteria as described under Materials and methods. To examine association, 500 ng of each GST-MAPK were incubated with 20 μl of the indicated IPed Imps in PBS (2 hrs, 4° C., with rotation). The beads were then washed with washing buffer containing 150 mM NaCl, and interacting MAPKs were detected using Western blot analysis with the indicated Abs. (B) Imp3 is not required for Imp7/9 interactions with JNK1/2 and p38α/β. HeLa cells were treated with Si RNAs of Imp3 according to the manufacturer instructions. […] Cell extracts were then subjected to Co-IP with anti Imp7 or Imp9, the interacting MAPKs were detected by Western blot with the indicated Abs. Amount of IPed Imps was detected by the indicated Abs.

Assay [3] addresses B1. The description is as above. On the procedure: as §1
The target of assay [4] is T1, Importin9. Briefly: Co-IP with anti GFP Abs, transfected HeLa cells. As to the method:
(§2) FIGS. 10A-10B illustrate that endogenous and overexpressed JNK1/2 and p38α/β CoIP with Imp3, 7 and 9. (A) A Co-IP screen to detect the importins interacting with JNK1/2 and p38α/β in MCF7 cells. MCF7 cells were grown on slides to 70% confluence, serums starved and then were either stimulated with Anisomycin (Anis 0.5 μg/ml, 15 min), TPA (250 nM, 15 min) or left untreated (NT). Cells extracts were then subjected to Co-IP with anti JNK1, JNK2, p38α, or p38β, and rabbit IgG as a negative control (Control). The interacting Imps or the IPed MAPKs were detected by Western blot with the indicated Imps or MAPK Abs. (B) Interaction of overexpressed MAPKs in HeLa cells. HeLa cells were transfected with either JNK2-GFP (wt-JNK2), p38ββ-GFP (wt-p38β) or GFP alone. Cells were serum starved, and then treated with Anisomycin (Anis 0.5 μg/ml, 15 min), TPA (250 nM, 15 min). Cells extracts were then subjected to a CoIP with anti GFP Abs. The interacting Imps and the loading extracts were detected using Western blot analysis with the indicated (left) Abs. The blots were developed with either NBT/BCIP or ECL. Arrows indicate interacting Imps.

The target in assay [5] is B1. Briefly: Co-IP with anti GFP Abs, transfected HeLa cells. On the procedure:
as §2

T1 sequence (Q96P70 2-1041 limits assumed): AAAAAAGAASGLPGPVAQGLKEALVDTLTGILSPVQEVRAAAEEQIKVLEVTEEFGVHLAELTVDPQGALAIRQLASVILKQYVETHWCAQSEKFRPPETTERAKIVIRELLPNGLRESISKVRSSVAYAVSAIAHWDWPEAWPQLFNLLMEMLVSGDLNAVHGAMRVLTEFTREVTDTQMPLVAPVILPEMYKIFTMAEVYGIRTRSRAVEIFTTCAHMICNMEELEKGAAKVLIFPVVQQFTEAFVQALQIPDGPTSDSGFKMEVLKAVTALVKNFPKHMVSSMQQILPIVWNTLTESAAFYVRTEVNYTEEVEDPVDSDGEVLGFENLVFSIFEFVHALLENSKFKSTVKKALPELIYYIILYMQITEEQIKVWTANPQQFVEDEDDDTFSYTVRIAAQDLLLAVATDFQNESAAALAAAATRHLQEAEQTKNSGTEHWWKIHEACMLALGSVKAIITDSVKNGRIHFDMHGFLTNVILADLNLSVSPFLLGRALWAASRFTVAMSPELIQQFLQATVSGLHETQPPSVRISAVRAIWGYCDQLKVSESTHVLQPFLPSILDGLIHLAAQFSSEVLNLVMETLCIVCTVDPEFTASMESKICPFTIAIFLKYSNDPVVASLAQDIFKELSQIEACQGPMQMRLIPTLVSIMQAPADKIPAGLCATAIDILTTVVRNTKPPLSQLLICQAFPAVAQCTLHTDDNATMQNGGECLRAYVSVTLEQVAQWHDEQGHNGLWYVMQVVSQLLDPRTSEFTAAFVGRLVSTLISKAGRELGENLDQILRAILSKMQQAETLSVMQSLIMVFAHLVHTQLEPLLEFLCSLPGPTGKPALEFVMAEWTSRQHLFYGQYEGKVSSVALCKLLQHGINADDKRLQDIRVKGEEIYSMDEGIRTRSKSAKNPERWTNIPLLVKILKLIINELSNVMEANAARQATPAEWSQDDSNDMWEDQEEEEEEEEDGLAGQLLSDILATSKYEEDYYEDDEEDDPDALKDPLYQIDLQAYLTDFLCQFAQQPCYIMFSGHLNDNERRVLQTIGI

With B1, the binding result with Importin9 [1] is given as “no binding”.

B2: GST-p38β (enzyme, UniProt Q15759 1-364, looked up)
chain: MSGPRAGFYRQELNKTVWEVPQRLQGLRPVGSGAYGSVCSAYDARLRQKVAVKKLSRPFQSLIHARRTYRELRLLKHLKHENVIGLLDVFTPATSIEDFSEVYLVTTLMGADLNNIVKCQALSDEHVQFLVYQLLRGLKYIHSAGIIHRDLKPSNVAVNEDCELRILDFGLARQADEEMTGYVATRWYRAPEIMLNWMHYNQTVDIWSVGCIMAELLQGKALFPGSDYIDQLKRIMEVVGTPSPEVLAKISSEHARTYIQSLPPMPQKDLSSIFRGANPLAIDLLGRMLVLDSDQRVSAAEALAHAYFSQYHDPEDEPEAEPYDESVEAKERTLEEWKELTYQEVLSFKPPEPPKPPGSLEIEQ
notes: Made in bacteria; also called GST-p38α/β; GST-MAPK; not shown: glutathione S-transferase tag of the pGEX-2T vector (GE healthcare)
Turning to B2, the binding result with Importin9 [2] and with Importin7 [3] was “binds” throughout.

B3: p38β-GFP (enzyme, UniProt Q15759 1-364, looked up)
chain: MSGPRAGFYRQELNKTVWEVPQRLQGLRPVGSGAYGSVCSAYDARLRQKVAVKKLSRPFQSLIHARRTYRELRLLKHLKHENVIGLLDVFTPATSIEDFSEVYLVTTLMGADLNNIVKCQALSDEHVQFLVYQLLRGLKYIHSAGIIHRDLKPSNVAVNEDCELRILDFGLARQADEEMTGYVATRWYRAPEIMLNWMHYNQTVDIWSVGCIMAELLQGKALFPGSDYIDQLKRIMEVVGTPSPEVLAKISSEHARTYIQSLPPMPQKDLSSIFRGANPLAIDLLGRMLVLDSDQRVSAAEALAHAYFSQYHDPEDEPEAEPYDESVEAKERTLEEWKELTYQEVLSFKPPEPPKPPGSLEIEQ
notes: Overexpressed in HeLa cells; also called wt-p38β; GFP-p38β; not shown: GFP of the pEGFP-C1 vector (Clontech)
As to B3, the binding result with Importin9 [4] and with Importin7 [5] was “binds” in each case.
